Key:
[1] = system: ESC-NPCs; assay: GDF-11-induced upregulation of EMT marker Fibronectin in ESC-NPCs (immunofluorescence); format: cell-based; conditions: ESC-derived NPCs
Protocol: FIG. 1. Smad2 inhibition (A) or simultaneous culture with GDF-15 (B) blocks GDF-11-induced upregulation of EMT marker Fibronectin in ESC-NPCs. Scale bar=100 μm.
(A) ESC-derived NPCs were pre-treated with DMSO or Smad2 inhibitor SB431542 (10 μM) for 1 h and then co-treated with PBS or GDF-11 (50 ng/ml) for another 7 days before harvest. (B) SC-derived NPCs were pre-treated with PBS or GDF-15 (50 ng/ml) for 1 h and then co-treated with PBS or GDF-11 (16.7 ng/ml) for another 7 days before harvest. GDF-15 was added daily while SB431542 and GDF-11 was only added one time in the beginning. Nucleus (DPAI) and EMT (Fibronectin) marker were then detected by immunofluorescence.

[2] = system: ARPE-19 cells; assay: TGFβ-2-induced upregulation of phosph-Smad2 and EMT marker Fibronectin in ARPE-19 cells (Western blot); format: cell-based, Human; conditions: N=3, P<0.05
Protocol: FIG. 2: Simultaneous culture with GDF-15 reduces TGFβ-2-induced upregulation of phosph-Smad2 (A) and EMT marker Fibronectin (B) in ARPE-19 cells. (N=3, *P<0.05).
(N=3, *P<0.05). Human adult retinal pigment epithelial cells (ARPE-19) were pre-treated with PBS or GDF-15 (50 ng/ml) for 1 h and then co-treated with PBS or TGFβ-2 (1 ng/ml) for another hour (A) or 2 days (B) before harvest. For Fibronection detection, GDF-15 was added daily while TGFβ-2 was only added one time in the beginning. GAPDH (loading control), p-Smad2 and Fibronectin proteins were then detected by Western blot.

NC(=O)c1ccc(-c2nc(-c3ccc4c(c3)OCO4)c(-c3ccccn3)[nH]2)cc1 [SB431542, reference compound]
GDF-11-induced upregulation of EMT marker Fibronectin ([1]; SB431542 10 μM pre-treated 1 h, then co-treated with GDF-11 (50 ng/ml) 7 days): blocks

B1: GDF-15: secreted ligand of the TGF superfamily of proteins; human GDF-15 protein, SEQ ID NO: 1 (protein, listed as Homo sapiens)
chain: MPGQELRTVNGSQMLLVLLVLSWLPHGGALSLAEASRASFPGPSELHSEDSRFRELRKRYEDLLTRLRANQSWEDSNTDLVPAPAVRILTPEVRLGSGGHLHLRISRAALPEGLPEASRLHRALFRLSPTASRSWDVTRPLRRQLSLARPQAPALHLRLSPPPSQSDQLLAESSSARPQLELHLRPQAARGRRRARARNGDHCPLGPGRCCRLHTVRASLEDLGWADWVLSPREVQVTMCIGACPSQFRAANMHAQIKTSLHRLKPDTVPAPCCVPASYNPMVLIQKTDTGVSLQTYDDLLAKDCHCI
GDF-11-induced upregulation of EMT marker Fibronectin ([1]; GDF-15 50 ng/ml pre-treated 1 h (added daily), then co-treated with GDF-11 (16.7 ng/ml) 7 days): blocks | TGFβ-2-induced upregulation of EMT marker Fibronectin ([2]; GDF-15 50 ng/ml pre-treated 1 h (added daily), then co-treated with TGFβ-2 (1 ng/ml) 2 days): reduces | TGFβ-2-induced upregulation of phosph-Smad2 ([2]; GDF-15 50 ng/ml pre-treated 1 h, then co-treated with TGFβ-2 (1 ng/ml) another hour): reduces

Source: patent US12728152B2, “Growth and differentiation factor 15 for treatment of proliferative vitreoretinopathy therapy” (The Board of Trustees of the Leland Stanford Junior …, priority 2020, dated 2026)
